Some targets named below: tissue kallikrein; trypsin; plasmin.
Common to all, as to experiment: cell-based or functional assay
In test [1] the target is recombinant human tryptase (Promega) (human) (UniProt Q15661). The following applies: scale: % of the activity in the absence of inhibitor.

Values joined by “and” are separate entries in the source; they are usually repeats but may differ in a detail not shown here. Equal values may be shown once.

UniProt Q15661, sequence (Q15661 31-275): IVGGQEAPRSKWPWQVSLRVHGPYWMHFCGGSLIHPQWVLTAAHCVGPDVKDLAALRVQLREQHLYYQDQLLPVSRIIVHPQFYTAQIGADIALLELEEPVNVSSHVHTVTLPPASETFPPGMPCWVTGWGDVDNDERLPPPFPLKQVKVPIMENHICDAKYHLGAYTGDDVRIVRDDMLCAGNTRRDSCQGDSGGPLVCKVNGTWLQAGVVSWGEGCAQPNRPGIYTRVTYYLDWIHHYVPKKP

“Recombinant tick-derived protease inhibitor protein (rTdPI), histidine-tagged” returned a tissue kallikrein activity (n-benzoyl-Pro-Phe-Arg-pNA, absorbance at 410 nm); percent inhibition at 7.5 µM rTdPI (% inhibition at 7.5 µM) with tissue kallikrein of 50. In the test with trypsin, the concentration for 50% trypsin inhibition (peptide release from resorufin-labelled casein); one of two values from two assumed molecular masses (12 kDa or 13.5 kDa) was 0.044 µM and 0.033 µM. In the test with plasmin, the concentration corresponding with 50% plasmin inhibition (peptide release from resorufin-labelled casein); one of two values from two assumed molecular masses (12 kDa or 13.5 kDa) is 0.32 µM and 0.43 µM. Also, in test [1], the residual catalytic activity of tryptase (n-α-benzoyl-DL-Arg-p-nitroanilide, absorbance at 405 nm) after preincubation with rTdPI was found to be 33.

Consider “soybean trypsin inhibitor (from UniProt P01070 25-205)”, for which the concentration for 50% trypsin inhibition (peptide release from resorufin-labelled casein) in the test with trypsin is 0.026 µM. The substance further showed a concentration corresponding with 50% plasmin inhibition (peptide release from resorufin-labelled casein) in the test with plasmin of 0.23 µM.
